A short description of this data set: label from the status in PepcDB records.
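Also: failed if final PepcDB status was selected cloned or expressed and not failed if soluble or beyond.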

In the case of “MQKIIDDSLELAKKLQDSISNHLSDQEKAFHSKMQKLLNNPENKVMLIELMDRSFRCLDNKARFEMIEHVLDKYKSREIFSPFEKVLLMGFLSFGKMLPDMSVPFFVNKIRSDTKAMVLDQEESQLKERILKRKNEKIILNVNFIGEEVLGEEEANARFEKYSQALKSNYIQYISIKITTIFSQINILDFEYSKKEIVKRLDALYALALEEEKKQGMPKFINLDMEEFRDLELTVESFMESIAKFDLNAGIVLQAYIPDSYEYLKKLHAFSKERVLKGLKPIKIRFVKGANMESEETIASVKDWALPTFSNKQDTDSNYNKMLDFVLEGDNYKYIHIGAASHNIFEIAYVYTRIHAINDPVVLEHFSFEMLEGMSLQASQELKEMHKLILYAPVCDEAHFNNAIAYLVRRLDENTSSDNFMKAFFNLKVGTSEWKDQEQRFLNSLKGIATLDNATHRTQDRNAKQSGHTTYPNHSFKNESDTDFILKANREWAKKVREKMRNAPILELYPEMDGRFEDPNLTPLEVFDRIHHKKIASVHLADKEAILKALEVAKSDKSRFSQKSFTEIHALMSQTAQLFRERRGDLIGISALEVGKTFAETDAEVSEAIDFLEFYPYSLRVLQEQNTKTQFTPKGVGVVIAPWNFPVGISVGTIAAPLATGNRVIYKPSSLSSVTGYKLCECFWDAGVPRDALIYLPSKGSDISEHLLRDESIQFAILTGGEDTAYKMLKANPTLALSAETGGKNATIVSKMADRDQAIKNVIHSAFSNSGQKCSATSLLVLEKEVYEDENFKKTLIDATLSLSVGDPFDFKNKIGALADKPNEKVIKAIDELKSYENYEIPVSFVNDNPYLMKPSIKYGTKKGDFTHQTELFTPILSVMEAKDLDEAIEIANSTGYGLTSALESLDEREWEYYLERIEAGNIYINKPTTGAIVLRQPFGGVKKSAVGFGRKVGIFNYITQFVNICQEEEDENALKNPLSEALENLTQKGYDEHTHELKRAIFMAKSYAYHYKHEFSQTKDYVKIRGEDNLFSYTKVKSVGYRITEKDTLSDMLGVALACLISQIPLTLSIENERTNKDLTFFLECLKALQASAPIVYESLQKFSEKLNTFNRVRYLKSDLDLLHEQASALGMVLATAKPCLNGRFELLYYHLERSVSISYHRYGNLGSRVLRQPTCHKSCCAEK”, the protein production result is listed as “failed”. For “MQKNFSVVKKYVNLILDIVLGILGVFLLVFMASYLVDLATYLMKPMTPDNFSVIMQEIISFFMLFEFIMMILRYIQEGHHIPIRYLILICLTAILRQLMVAHGDGLQTLLLSLSILLLVVVLFILGLNGSKFYTLGKAKVEEDHEQDFHH”, the protein production result is recorded as “failed”.

As for “MQKNLDSLLENLRAEIDALDNELSDLLDKRLEIALKIALIKQESPIYCPKREQEILKRLSQRDFKHLNGEILTGFYTEVFKISRKFQENALKELKK”, the protein production entry is reported as “failed”. Take “MQKPAVTVMVKAARLAGNVLLRGINKLDALNVVQKGRMDYASEVDADAEKVIIKELKRGYPEYAVFGEEGGVQGGKSGRYTWVIDPLDGTSNYLRGFPHYCVSIALVENGEPTDAVIFDPLRNELFTASRGAGAVLNDRRIRIAERKDLEGAMVHTGFPPRERARASAQLKCVDALLVQAEDVRRTGSAALDLAYVACGRADAYFEAGVKAWDIAAGVLLVREAGGRVCDYKGATPPRMDNMGPETQQIVAGNIKISDALQKVIVNTGYAREFDAKF”: the protein production result is reported as “failed”.

Take “MQKPHLLITSAGRRAKLVEYFVKEFKTGRVSTADCSPLASALYMADQHYIVPKIDEVEYIDHLLTLCQDEGVTALLTLIDPELGLLAQATERFQAIGVTVIVSPYAACELCFDKYTMYEYCLRQGIAHARTYATMASFEEALAAGEVQLPVFVKPRNGSASIEVRRVETVEEVEQLFSKNTDLIVQELLVGQELGVDAYVDLISGKVTSIFIKEKLTMRAGETDKSRSVLRDDVFELVEHVLDGSGLVGPLDFDLFDVAGTLYLSEINPRFGGGYPHAYECGVNFPAQLYRNLMHEINVPQIGQYLDDIYMLKHDTVTLISAAELQKIKR”: the protein production result is given as “not failed”. Take “MQKVEGIIFDMDGVLFDSERISLEFWMETFEKYGYTMTKEIYTSVMGRNRKGIIEGLTDIYDSSVPIIDLYDEKTKNMIEFMERKGAPIKLGVNELISFLKENGYKMAVATSTKRERAVKRLAKANLKDYFDAIVCGDDVVNSKPNPEIFLKAAKKINVNPKNCIVIEDSPMGVEAAYNGGIRCINVPDLKEPDEQIKSQSHKILENLLEVREYLKSLNSKECHNL”: the protein production entry is “failed”. Consider “MQLAINKIYRRIFISMDTGVSDHGIEIIGVDPIPGTSRIMGPWKMTVFWSMASASALTPLIGYLLYPLGLIDMLIAISIAFLIGFVPVGIFSEMGRTIPVPAMIISRKTLGYASSSVMSLIFTFVNLGWFGLNDITGGLILASVTSSSPIIWISFMAIVQIMLVLFGAKYLEKFYRYTAILLVFSYGILTYLLFRVYRPDMYAVLHPSTAVNWGSAIGLVLAFSILAWAYKVSTISRFARKREAGEPALERSGFFMAPSIGIIVPVYVMGSLGLISEAAAENWNLAAVRFSGLGSIGGAVAIIASIGASLAIIHTNSMNLYPATADLLSAIEGLFNKRLRKFAQPISTAILGTLGAVLAYAGILNYASGFLNLSGSIIFPFTFVLIADWFMMNRHSANSADFYSIPKNGLGNVNLAGISGLIVGVILNLIHINLLNALFLYVPQDIFGSLAGTAVFILVLKAVQKKQAAQEENRSDTVAE”, for which the protein production entry was “failed”. On to “MQLEHILRSYARYAPVYDHTFGWLLNFRGRSLAAHLTNRRPGRILEVGVGTGISLPFYRKEHQVHGIDISPHMLERARRRVHSKNLDHVVRLEIMDAREMAFPDDYFDAVVAAYVMSVVPEPQRVLREIERVCKAGGDVIIVNHFAADKKGTRRHFEALLSPLSHKLGWRPDMPIDEILAHTSLHEVRRQTLPPMGLFTLLHLKKASPDFADPARP”, for which the protein production entry was “failed”.

Turning to “MQLESLYQFLYSVVMSYLVSLKYVSFVLISVILVFRKIIRTVKGGRFRRYSIFIPPILYILFSIAVSYGTSLLGIVLSLIAFVFGIYISFHTTRSIVFFSKNNILYYKRPGWVVAIWSLAFLTRLALILFFPSFNGDLFTVLLFLASGLIIGESFWIVRKNREILSTVRMPKIHL”, the protein production result was “failed”. Regarding “MQLIGDTPITYRRYSMSSSQNALVLIARILLSFIFIYSGFGKLTDPAGTAGMIAGAGMPAATALAYLAGLFELVAGLAILAGFQTKIAAWALAVFCVFTGLVFHSGTVAVPGWPEPALGWINTLNGIMMMKNITLAGAYILLATFGAGAYSVDAKRGFVAARA”, the protein production entry is given as “failed”. Then “MQLQTEVKKQPSKRKFKMPDAYVLLFFIALLCAIATYFVPAGEFKRVTNRTVTTTIPGSYHSVPQSPVGFVSFFTAIEKGMTLAAPIIFLILFTGGAIAILEKTGALDGLIYHVINKFRNQQFLFICIVAALFSILGTTGIIVNSVIGFIPIGIIVARTLKWDAIVGVAIIYLGTYAGFNATILSPSPLGISQKIAELPMFSGIGLRTAIYLSFLLATILYINWYVKRLKKSNKGSILGDNWFPSNALSSGKEAQKTEVPWTIRHKLILLVSALSLITFLIGAFRLHWTDAEMTATFIFIAITAGIIGGMKANDIASTFLAGCQNLIYGALIVGMARCISVILEQGKLLDTIVNQLAQSLEGQSPVFGVIGMYVSSAALHFLISSGTGESVIFIPILAPLADFMHITRQVTVQAVMLGEGVVNCLNPTSGVLMGVLAASGISYGKWIRFMAPLAFIWFIIGLIFLIVGVNIEWGPY”, with “failed”; and “MQLTSENYYSQEANKEYMSVSGYKDFAGTYGKMPCEFYGMEKLNGRWEDEKSTALLVGSYVDSYFEGSLDQFKKDNPEIFTQKGELKANFKQAEEIIARIERDEYFMKYMSGQKQVIMTGELFGAKWKIKMDSYIPGVAIVDLKVMASITDLKWVKDIGYLDFVRYWGYDIQGAVYQEIVRQNTGEKLPFFIAGATKQTEPDIRIIHVTDNYLQEALHMVEMNMPRILRVKNGEVEPDRCELCDCCRHNRVLKKPISIMDLTAGI”, with “not failed”; and “MQMSEKFKQIRARLRLPVLVAPMLRISGPALVAASCSNGVIGSFPTVNARTPDQLDRWIDEIKQAVSAAGAYDAPYCANILARSDPDKLQADLKILIKHKVEIVLVSTGAPEKYVKPLQDIGCFVIADVASIRHARKALQQGVDGLALLTAGAGGQTGWANGFAFVRAIRDFYDGPLLLAGGVSDGQALWAARTLGCDLGLMGTRFIGTQECDASDGYKAMLVDSSIDDVVLTRGISGIDANFLRPSIIACGLDPQELVAPVSPERAREMFSSYADGMRGPKRWVDLWSAGHTVSGVKVVQSVSEVVDQLAVEYTRAQRATRAPLADADDPAI”, with “failed”. Take “MQNIAVHEASTLMRYISNAIGSIRDPQELFRTVTDKLRLVFEFDSAFIITLDRDRRFINVVFEMVRFDLPDTIQRKKRPVAGSWIESHLGDEGVSVVAIEGEMDRYPADFPVPRMLYDLGMRQVVLSPLRSGGKVIGFLNFVSREQKQWKESDKELLSTLSSPVAVALSSALAYEELRQREA”: the protein production entry is on record as “failed”.

“MQNNKTKLLDEVATYYAEKLAEHGDTPRGVDWNGEESQTIRFEQLCKVIDPKKMPGFSLNDLGCGYGALLDYLRDKYAACIYLGVDVSHEMIKAARQRHTAANQARFITSTEPDQVADYGVASGIFNVRLERTDAEWFDYLLGTLDVLNRTSSLGFAFNCLTSYSDEDKKRDYLYYADPCRLFDLCKRRYSRQVALLHDYGLYEFTILIRKALEHHHHHH”: the protein production entry is “failed”. As to “MQPDTQEIVVDEVFPHAPETIWKTLTTAELMGRWLMMPAGFEPIEGKRFTYQTTPAGDWDGTIHCQVLEVKPNERLTYAWKGGHAGNTGYGSPLDTVVTFILSRAGNGTRLRLVHSGFVLPKNETAYRKMGEGWKKVVKNIGALAGGEDLEHHHHHH”, the protein production entry is listed as “failed”. As to “MQPIELAELLTSQAAVLTSLVVIGLILCFIGYKIFRVYSAVIGLFIGQLVGIYITINYYENALIVILASAIVGALLFALIDELGLIVTGAAFGYFVGVYLLPEYQVYAFVLAALFALINLFIEKPLTVLITSVIGASAIALAVHMGITGTHIYDILNDPKKVFDAIFSNAYFDLLWFTLVLTGIITQYVTYKEEREEEE”, the protein production result is reported as “failed”. Consider “MQPISILFLGIDDNDGRRKKGQDAEHSRSDAMILTTFNQSKHQIRMLSIPRDTISYIPKVGYYDKITHAHAYGGPIAAMDSVEATMNVPVDYYVRVNMKAFVEAVNELGGIYYDVPYDLNEPNTDDTGKIKIKKGYQKLNGDEALAVARTRHHDSDLKRGQRQMELIKILFQKAQEVDSIDKLDNVIQIVGKNAKHNLTNSEIKALAKMYLTNDVEIKTAQLKGKDDMLNGIYYYHPSVESIQKYANLLRKDLELSPINDKNDFLDQRVINHYGSLIPLTPLDSSLLRLEHHHHHH”, for which the protein production entry is “not failed”. As to “MQPTGNQIQQNQQQQQQLIMRVPKQEVSVSGAARRYVQQAPPNRPPRQNHQNGAIGGKKSSVTIQEVPNNAYLETLNKSGNNKVDDDKLPVFLIKLWNIVEDPNLQSIVHWDDSGASFHISDPYLFGRNVLPHFFKHNNMNSMVRQLNMYGFRKMTPLSQGGLTRTESDQDHLEFSHPCFVQGRPELLSQIKRK”, the protein production result was “not failed”. As to “MQPTGNQIQQNQQQQQQLIMRVPKQEVSVSGAARRYVQQAPPNRPPRQNHQNGAIGGKKSSVTIQEVPNNAYLETLNKSGNNKVDDDKLPVFLIKLWNIVEDPNLQSIVHWDDSGASFHISDPYLFGRNVLPHFFKHNNMNSMVRQLNMYGFRKMTPLSQGGLTRTESDQDHLEFSHPCFVQGRPELLSQIKRKQSARTVEDKQVNEQTQQNLEVVMAEMRAMREKAKNMEDKMNKLTKENRDMWTQMGSMRQQHARQQQYFKKLLHFLVSVMQPG”, the protein production entry is recorded as “failed”.
